Tested on: CC(C)CCCCCCC/C=C\C(=O)O
Experiment: purified protein
Settings: pH 7.0 phosphate (standard of pH 6, 7, 8 tested); co-substrates 5 mM ATP, 0.5 mM CoA; 10 mM MgCl2, 2 mM EDTA, 0.1% Triton X-100; 37°C in b48 (28°C elsewhere in the source)

## RpfB (Xanthomonas campestris pv. campestris str. ATCC 33913)
  Km: 6.5 µM
